Assay results from patent publication US20220380455A1 (Alector, published 2022).
“And” between values parts separate entries of the source, which are not always exact repeats. Identical values can stand only once.

T1: BSA-MS4A6A-ECL2 peptide (human, BSA-conjugated)
T1 construct: Synthetic peptide derived from ECL2, conjugated to BSA, coated on the ELISA plate; also called MS4A6A-ECL2 BSA conjugated peptide; BSA-MS4A6A-ELC2 peptide
T1 peptide: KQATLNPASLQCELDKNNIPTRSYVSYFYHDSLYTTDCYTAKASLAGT

T2: MS4A6A ECL1 peptide (human)
T2 construct: the description elsewhere gives ECL1 as 68-84; Human and cyno ECL1 are said to be identical
T2 peptide: SASFSPNFTQVTSTLLNS

T3: cynomolgus (cyno) MS4A6A (cynomolgus, UniProt Q9H2W1 1-246 (human entry))
T3 construct: Full-length protein expressed in transfected HEK293, U937 or K562 cells (flow cytometry)
T3 chain: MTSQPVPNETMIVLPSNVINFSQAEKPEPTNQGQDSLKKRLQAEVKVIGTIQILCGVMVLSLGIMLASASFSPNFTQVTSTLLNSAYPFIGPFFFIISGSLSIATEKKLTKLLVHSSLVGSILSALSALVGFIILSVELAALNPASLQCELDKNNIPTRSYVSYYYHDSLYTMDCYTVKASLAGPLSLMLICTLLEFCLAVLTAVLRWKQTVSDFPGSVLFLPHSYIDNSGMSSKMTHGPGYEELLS

T4: MS4A6A ECL2 peptide (human)
T4 construct: also called MS4A6A ECL-2 peptides
T4 peptide: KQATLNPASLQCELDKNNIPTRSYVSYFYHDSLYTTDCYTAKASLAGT


Tests used:
BSA-MS4A6A-ECL2 peptide = biological target: T1, BSA-MS4A6A-ECL2 peptide; assay: peptide ELISA, hybridoma supernatant
Protocol: (§1) Anti-MS4A6A hybridoma supernatants were tested for binding to MS4A6A peptides derived from ECL1 (amino acid residues 68-85 of human MS4A6A of SEQ ID NO:1) and ECL2 (amino acid residues 138-185 of human MS4A6A of SEQ ID NO:1) sequences, using an enzyme-linked immunosorbent assay (ELISA). Briefly, 96-well polystyrene plates were coated with 1-10 μg/mL of synthetic free or BSA-conjugated peptides in coating buffer (0.05M carbonate buffer, pH9.6, Millipore Sigma C3041) overnight at 4° C. Coated plates were then blocked with ELISA diluent (PBS+0.5% BSA+0.05% Tween20) for 1-hour, washed 3×300 μL in PBST (PBS+0.05% Tween20, Thermo 28352), and then the antibodies were added at various dilutions (100-1000×) in ELISA diluent. After 30 mins incubation (room temperature, with shaking), the plates were washed 3×300 μl in PBST. A secondary anti-mouse HRP antibody (Jackson Immunoresearch CAT #115-035-003) was added at a 1:1000 dilution in ELISA diluent (50 μL/well) and incubated for 30 minutes at room temperature with shaking. After a final set of washes (3×300 μl in PBST), 50 μL of TMB substrate (BioFx TMBW-1000-01) was added and the reaction was then quenched after 5-10 mins with 50 μL of stop solution (BioFx BSTP-1000-01). The quenched reaction wells were detected for absorbance at […] with a BioTek Synergy Microplate Reader using GENS 2.04 software.

MS4A6A ECL1 peptide = biological target: T2, MS4A6A ECL1 peptide; assay: peptide ELISA, hybridoma supernatant
Protocol: as §1

cynomolgus (cyno) MS4A6A [1] = biological target: T3, cynomolgus (cyno) MS4A6A; assay: flow cytometry, hybridoma supernatant, HEK293 transfected with cyno MS4A6A over parental HEK293; Screen 1
Protocol: (§2) Positive clones were expanded and then rescreened for specificity against HEK293 cells overexpressing cyno MS4A6A and parental HEK293 cells. Briefly, previously prepared, cryopreserved transiently-transfected cells were labeled with LIVE/DEAD Fixable Aqua Dead Cell Stain Kit (ThermoFisher Scientific L34957) on ice for 30 minutes. After a wash with PBS, 2×10⁵ cells were aliquoted per well in 96-well round bottom plates and incubated with 50 μl of culture supernatant on ice for 30 mins. […] Following this secondary incubation, the cells were again washed twice with ice-cold FACS buffer and resuspended in a final volume of 200 μl of FACS buffer. Analysis was performed on a FACS Canto system (BD Biosciences), with sort gates drawn to exclude dead (Aqua-positive) cells. […] The screen was repeated twice, and the numbers reported here represent the ratio of mean fluorescence level in transfected cells over parental cells.

MS4A6A ECL2 peptide [2] = biological target: T4, MS4A6A ECL2 peptide; assay: array SPR (Carterra MX-96), antibody captured, peptide injected; both duplicates N/A
Protocol: (§3) Binding kinetic characterization of the purified antibodies to MS4A6A ECL1 and ECL2 peptides was performed by Carterra (South San Francisco, Calif.) using a proprietary array Surface Plasmon Resonance (SPR) instrument (MX-96) as follows. Antibodies were printed onto a CMD5OOD chip (Xantec #SPMX CMD500D lot #SC CMD500D0117.a Exp. 31.12.18) using the Continuous Flow Microspotter (CFM). First, the chip was activated with 100 mM MES pH 5.5, 100 μL EDC (133 mM final), 100 μL of S-NHS (33.3 mM final), for 7 minutes. A lawn of anti-mouse IgG-Fc (Jackson ImmunoResearch CAT #115-005-071 lot#130410) was injected for 15 minutes to establish a surface density of 10000-12000 RU, after which the chip surface was deactivated with 1 M ethanolamine at pH 8.5 for 10 minutes. Anti-MS4A6A antibodies in question, in the form of hybridoma supernatants diluted 2:1 with HBS-EP+buffer (Teknova CAT #H8022), were then printed as duplicates with a 20 minute and a 5 minutes print from the same sample solution. Control antibodies were diluted to 20 μ/ml for printing.
(§4) To perform kinetic analysis, the peptides in question were prepared in HBS-EP+buffer with lmg/ml BSA at final assay concentrations of 2000 nM, 400 nM, 80 nM, 16 nmM, and 3.2 nM. These were then injected on the chip for five minutes, followed by a seven-minute dissociation period at 8 uL per second in a non-regenerative kinetic series. Duplicate measurements for each anti-MS4A6A antibody were taken to ensure reproducibility.
(§5) Kₐ (association rate constant; Kₒₙ), Kd (dissociation rate constant; Koff) and KD (equilibrium constant) to MS4A6A ECL-2 peptides were calculated for each of the 23 anti-MS4A6A antibodies tested, the results of which are shown below in Table 5 (clones that bound too weakly to determine these values are denoted as N/A in Table 5).

cynomolgus (cyno) MS4A6A [3] = biological target: T3, cynomolgus (cyno) MS4A6A; assay: flow cytometry, hybridoma supernatant, HEK293 transfected with cyno MS4A6A over parental HEK293; Screen 2
Protocol: as §2

MS4A6A ECL2 peptide [4] = biological target: T4, MS4A6A ECL2 peptide; assay: array SPR (Carterra MX-96), antibody captured on anti-mouse IgG-Fc, ECL2 peptide injected
Protocol: as §3, §4, §5

binding result (BSA-MS4A6A-ECL2 peptide)	binding result (MS4A6A ECL1 peptide)	ratio of APC MFI on MS4A6A+/HEK parental cells (cynomolgus (cyno) MS4A6A [1]) [ratio]	binding result (MS4A6A ECL2 peptide [2])	ratio of APC MFI on MS4A6A+/HEK parental cells (cynomolgus (cyno) MS4A6A [3]) [ratio]	Kd (MS4A6A ECL2 peptide [4])	koff (MS4A6A ECL2 peptide [4])	kon (MS4A6A ECL2 peptide [4])	Binder
–	no binding	26.7	–	69.5	170 nM	0.001 s⁻¹	6300 M⁻¹ s⁻¹	6A-8 (antibody, V domains shown, Mouse hybridoma antibody, tested as hybridoma supernatant (mouse IgG, detected or captured via anti-mouse IgG Fc); also called anti-MS4A6A antibody 6A-8) VH: QVQLQQSGAELARPGTSVKLSCKASGYTFTDYYINWVKQRNGQGLEWIGEIYPRSGNAYYNEKFRGKATLTTDKSSSTAYMQLSGLTSEDSAVYFCARGDGNWYFDVWGAGTTVIVSS VL: DIVMTQSPSSLSVSAGEKVTMSCKSSQSLLNSGDQENYLVWYQQKPGQPPKLLIYGASTRESGVPDRFTGSGSGTDFTLTISSVLAEDLAVYYCQSDHSYPLTFGAGTKLELK
no binding	no binding	19.3	no binding (tested: 2000 nM)	178	–	–	–	6A-17 (antibody, V domains shown, Mouse hybridoma antibody, tested as hybridoma supernatant (mouse IgG, detected or captured via anti-mouse IgG Fc); also called anti-MS4A6A antibody 6A-17) VH: QVQLKESGPGLVAPSQSLSITCTISGFSLTSYGVHWVRQPPGKGLEWLVVIWSDGSTTYNSALKSRLSISKDNSKSQVFLKMNGLQTDDTAMYYCARHRGNYPYYTMDYWGQGTSVTVSS VL: DIQMTQTTSSLSASLGDRVTISCRASQDISNYLNWYQQKPDGTVKLLIYYTSVLHSGVPSRFSGSGSGTDYSLTISNLEQEDIATYFCQQGNTLPWTFGGGTKLEIK

Further lines, the binder ahead of its results:

Binder	binding result (BSA-MS4A6A-ECL2 peptide)	binding result (MS4A6A ECL1 peptide)	ratio of APC MFI on MS4A6A+/HEK parental cells (cynomolgus (cyno) MS4A6A [1]) [ratio]	binding result (MS4A6A ECL2 peptide [2])	ratio of APC MFI on MS4A6A+/HEK parental cells (cynomolgus (cyno) MS4A6A [3]) [ratio]	Kd (MS4A6A ECL2 peptide [4])	koff (MS4A6A ECL2 peptide [4])	kon (MS4A6A ECL2 peptide [4])
6A-4 (antibody, V domains shown, Mouse hybridoma antibody, tested as hybridoma supernatant (mouse IgG, detected or captured via anti-mouse IgG Fc); also called anti-MS4A6A antibody 6A-4) VH: EVQLQQSGPELVKPGASVKISCKASGYSFTGYYMHWVKQSPEDSLEWIGAINPSTGGSTYSQKFKDKATLTVDKSSSTAYMQLKSLTSEESAVYYCTRFDGYGYWGQGTLVTVSA VL: DIVMTQAAFSNPVTLGTSASISCRSSKSLLHSNGITYLYWYLQKPGQSLQLLIYQMSNLASGVPDRFSGSGSGTDFTLRISRVEAEDVGVYYCAQNLELPWTFGGGTKLEIK	no binding	no binding	5.4	no binding (tested: 2000 nM)	16.2	–	–	–
6A-23 (antibody, V domains shown, Mouse hybridoma antibody, tested as hybridoma supernatant (mouse IgG, detected or captured via anti-mouse IgG Fc); also called anti-MS4A6A antibody 6A-23) VH: EVNLEESGGDLVQPGGSMKLSCLASGFTFSDAWMDWVRQSPEKGLEWVAEIKNKANNYVTFYAASVKGRFTISRDDSKSSVYLQMNSLRLEDTGIYFCTRGSVYGNWFPYWGQGTLVTVSA VL: DIVMSQSPSSLAVSAGEKVTMTCKSSQSLFNSRTRKNYLTWYQQKPGQSPKVLIYWASTRESGVPDRFTGSGSGTDFSLTINSVQADDLAVYYCKQSYNLLTFGAGTKLELK	–	no binding	156	–	82	120 nM and 150 nM	0.00065 s⁻¹ and 0.0008 s⁻¹	5400 M⁻¹ s⁻¹ and 5500 M⁻¹ s⁻¹
6A-6 (antibody, V domains shown, Mouse hybridoma antibody, tested as hybridoma supernatant (mouse IgG, detected or captured via anti-mouse IgG Fc); also called anti-MS4A6A antibody 6A-6) VH: QIQLVQSGPELKKPGESVKISCKASGYTFANYGMNWVKLAPGKGLKWMGYINIYSGKSRYADDFKGRFAFSLETSASTAYLQINNLKNEDMATYFCARDNDYFDYWGQGTTLTVSS VL: DIVLTQSPATLSVTPGDTVSLSCRASQSISDNLHWYQQKSHESPGLLIKYASQSISGIPSRFSGRGSGTDFTLSINSVDSEDFGVYFCQQSNSWPYTFGGGTKLEIK	binds	no binding	13.5	–	62.1	–	–	–
